Paper PMC11272584 (Nature Metabolism, 2024)
Positions count from the first letter of the chain named.

Legend:
GIPR G449A (human) = target: T1, GIPR G449A (human) (UniProt P48546)
T1 sequence: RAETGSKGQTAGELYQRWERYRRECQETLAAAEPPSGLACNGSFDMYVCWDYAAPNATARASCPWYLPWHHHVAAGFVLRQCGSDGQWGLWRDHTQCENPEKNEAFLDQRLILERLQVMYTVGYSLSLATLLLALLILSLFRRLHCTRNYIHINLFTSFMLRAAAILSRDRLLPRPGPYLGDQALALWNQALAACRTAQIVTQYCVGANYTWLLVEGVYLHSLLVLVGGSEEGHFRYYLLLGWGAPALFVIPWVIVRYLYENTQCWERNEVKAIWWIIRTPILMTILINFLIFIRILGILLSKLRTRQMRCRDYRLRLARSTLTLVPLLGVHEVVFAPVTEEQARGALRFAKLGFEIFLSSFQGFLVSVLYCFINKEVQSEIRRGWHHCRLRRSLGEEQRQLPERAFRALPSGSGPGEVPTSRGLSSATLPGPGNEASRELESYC

GIPR S415I (human) = target: T2, GIPR S415I (human) (UniProt P48546)
T2 sequence: T1 sequence with S394I, A428G

GIPR K397N (human) = target: T3, GIPR K397N (human) (UniProt P48546)
T3 sequence: T1 sequence with K376N, A428G

GIPR A294V (human) = target: T4, GIPR A294V (human) (UniProt P48546)
T4 sequence: T1 sequence with A273V, A428G

GIPR I378M (human) = target: T5, GIPR I378M (human) (UniProt P48546)
T5 sequence: T1 sequence with I357M, A428G

GIPR E463Q (human) = target: T6, GIPR E463Q (human) (UniProt P48546)
T6 sequence: T1 sequence with A428G, E442Q

“β-arrestin 2 (Rluc8-Arrestin-3-Sp1) (from UniProt P32121 1-409) (natural protein)” was tested, and the β-arrestin 2 recruitment (BRET) on stimulation with GIP(1-42): logEC50 (Arrestin) (log M (inferred)) (GIPR G449A (human)) was -9.24, the β-arrestin 2 recruitment (BRET) on stimulation with GIP(1-42): logEC50 (Arrestin) (log M (inferred)) (GIPR S415I (human)) was -9.12 and the β-arrestin 2 recruitment (BRET) on stimulation with GIP(1-42): logEC50 (Arrestin) (log M (inferred)) (GIPR K397N (human)) was -8.9. It also gave a β-arrestin 2 recruitment (BRET) on stimulation with GIP(1-42): logEC50 (Arrestin) (log M (inferred)) (GIPR A294V (human)) of -9.01, a β-arrestin 2 recruitment (BRET) on stimulation with GIP(1-42): logEC50 (Arrestin) (log M (inferred)) (GIPR I378M (human)) of -9.13 and a β-arrestin 2 recruitment (BRET) on stimulation with GIP(1-42): logEC50 (Arrestin) (log M (inferred)) (GIPR E463Q (human)) of -9.08.
